{"source": "paper PMC12548936", "about": "“Microfluidic‐Assisted Evolution of a Robust NAD^+‐Dependent Enzyme with Improved Isobutanol Tolerance at Elevated Temperatures” (Chemsuschem, 2025)", "key": {"[1]": {"substrate": "O=C[C@H](O)CO", "test": "purified protein", "conditions": "co-substrate 5 mM NAD+, 100 mM HEPES"}, "[2]": {"substrate": "NC(=O)c1ccc[n+]([C@@H]2O[C@H](COP(=O)(O)OP(=O)(O)OC[C@H]3O[C@@H](n4cnc5c(N)ncnc54)[C@H](O)[C@@H]3O)[C@@H](O)[C@H]2O)c1", "test": "photometric ALDH activity assay, Michaelis-Menten fit", "type": "biochemical, Herbaspirillum seropedicae", "conditions": "co-substrate 5 mM D-glyceraldehyde, 100 mM HEPES, varied: cofactor"}, "[3]": {"conditions": "wild type, Chis tag, pH 7.5, 30 °C, 30.0 °C"}, "[4]": {"conditions": "StEP template, GS-linker Nhis tag, pH 7.5, 50 °C, 50.0 °C"}, "[5]": {"conditions": "StEP template, GS-linker Nhis tag, pH 7.5, 50 °C"}, "[6]": {"conditions": "FIN4, GS-linker Nhis tag, pH 7.5, 50 °C, 50.0 °C"}, "[7]": {"conditions": "FIN4, GS-linker Nhis tag, pH 7.5, 50 °C"}, "[8]": {"conditions": "FIN3, GS-linker Nhis tag, pH 7.5, 50 °C, 50.0 °C"}, "[9]": {"conditions": "FIN3, GS-linker Nhis tag, pH 7.5, 50 °C"}, "[10]": {"conditions": "FIN5, GS-linker Nhis tag, pH 7.5, 50 °C, 50.0 °C"}}}
{"protein": "HsALDH (HsALDH_Chis; NAD+-dependent aldehyde dehydrogenase / glyceraldehyde dehydrogenase GADH) (Herbaspirillum seropedicae SmR1) (protein, recombinant, E. coli BL21(DE3); wild type with C-terminal His tag (Chis); models show dimerizing chains) MYKDVQLFINGEWTASASGRTIDVINPATEEVIGKIAHADRADLDRALEAASKGFETWRNMSAFERSKIMRRAADLLRERAEEVARLMTMEQGKPLAEAKMETLGAADTIDWFAEEARRTYGRLVPARVPGAYQMVIKEPVGPVAAFTPWNFPLNQVVRKLSAALAAGCSIIVKAPEETPASPAELIRAYADAGVPAGVINLVYGVPAEISEYLIPHPVIKKISFTGSTPVGKQLAALAGQHMKRATMELGGHAPAMVFDDADVDVAAKMLATAKFRNAGQVCVSPTRFLVQKGVFNAFVDKFVTYAEQLKVGNGLEAGITMGPVANKRRIPALEALIDDAVSQGAQLRTGGKRIGNKGYFFQPTVLTNLPLQARAMNEEPFGPLALINSFETLDEVITEANRLPYGLAAYAFAKSAHTKHALAARVESGMLTINHLGLALPELPFGGIKDSGYGSEGGTEAIEAYINTKLVTQLDV", "values": [{"measurement": "Km", "setting": "[1]; [3]", "value": "13.0 ± 0.4", "unit": "mM"}, {"measurement": "kcat", "setting": "[1]; [3]", "value": "68.6 ± 0.8", "unit": "s⁻¹"}, {"measurement": "Km", "setting": "[2]; wild type, Chis tag, pH 7.5, 30 °C", "value": 0.59, "unit": "mM"}]}
{"protein": "HsALDH (HsALDH_Chis; NAD+-dependent aldehyde dehydrogenase / glyceraldehyde dehydrogenase GADH) (Herbaspirillum seropedicae SmR1; F147L/I36V/V284I) (protein, recombinant, E. coli BL21(DE3); wild type with C-terminal His tag (Chis); models show dimerizing chains) MYKDVQLFINGEWTASASGRTIDVINPATEEVIGKVAHADRADLDRALEAASKGFETWRNMSAFERSKIMRRAADLLRERAEEVARLMTMEQGKPLAEAKMETLGAADTIDWFAEEARRTYGRLVPARVPGAYQMVIKEPVGPVAALTPWNFPLNQVVRKLSAALAAGCSIIVKAPEETPASPAELIRAYADAGVPAGVINLVYGVPAEISEYLIPHPVIKKISFTGSTPVGKQLAALAGQHMKRATMELGGHAPAMVFDDADVDVAAKMLATAKFRNAGQVCISPTRFLVQKGVFNAFVDKFVTYAEQLKVGNGLEAGITMGPVANKRRIPALEALIDDAVSQGAQLRTGGKRIGNKGYFFQPTVLTNLPLQARAMNEEPFGPLALINSFETLDEVITEANRLPYGLAAYAFAKSAHTKHALAARVESGMLTINHLGLALPELPFGGIKDSGYGSEGGTEAIEAYINTKLVTQLDV", "values": [{"measurement": "Km", "setting": "[1]; [4]", "value": "12.7 ± 1.2", "unit": "mM"}, {"measurement": "kcat", "setting": "[1]; [4]", "value": "66.1 ± 2.0", "unit": "s⁻¹"}, {"measurement": "Km", "setting": "[2]; [5]", "value": "0.51 ± 0.03", "unit": "mM"}, {"measurement": "kcat", "setting": "[2]; [5]", "value": "66.1 ± 2.0", "unit": "s⁻¹"}]}
{"protein": "HsALDH (HsALDH_Chis; NAD+-dependent aldehyde dehydrogenase / glyceraldehyde dehydrogenase GADH) (Herbaspirillum seropedicae SmR1; F147L/I36V/K221R/L432M/V284I) (protein, recombinant, E. coli BL21(DE3); wild type with C-terminal His tag (Chis); models show dimerizing chains) MYKDVQLFINGEWTASASGRTIDVINPATEEVIGKVAHADRADLDRALEAASKGFETWRNMSAFERSKIMRRAADLLRERAEEVARLMTMEQGKPLAEAKMETLGAADTIDWFAEEARRTYGRLVPARVPGAYQMVIKEPVGPVAALTPWNFPLNQVVRKLSAALAAGCSIIVKAPEETPASPAELIRAYADAGVPAGVINLVYGVPAEISEYLIPHPVIRKISFTGSTPVGKQLAALAGQHMKRATMELGGHAPAMVFDDADVDVAAKMLATAKFRNAGQVCISPTRFLVQKGVFNAFVDKFVTYAEQLKVGNGLEAGITMGPVANKRRIPALEALIDDAVSQGAQLRTGGKRIGNKGYFFQPTVLTNLPLQARAMNEEPFGPLALINSFETLDEVITEANRLPYGLAAYAFAKSAHTKHALAARVESGMMTINHLGLALPELPFGGIKDSGYGSEGGTEAIEAYINTKLVTQLDV", "values": [{"measurement": "Km", "setting": "[1]; [6]", "value": "7.2 ± 0.8", "unit": "mM"}, {"measurement": "kcat", "setting": "[1]; [6]", "value": "46.6 ± 1.4", "unit": "s⁻¹"}, {"measurement": "Km", "setting": "[2]; [7]", "value": "0.50 ± 0.06", "unit": "mM"}, {"measurement": "kcat", "setting": "[2]; [7]", "value": "46.6 ± 1.4", "unit": "s⁻¹"}]}
{"protein": "HsALDH (HsALDH_Chis; NAD+-dependent aldehyde dehydrogenase / glyceraldehyde dehydrogenase GADH) (Herbaspirillum seropedicae SmR1; F147L/I36V/K221R/V158A/V284I) (protein, recombinant, E. coli BL21(DE3); wild type with C-terminal His tag (Chis); models show dimerizing chains) MYKDVQLFINGEWTASASGRTIDVINPATEEVIGKVAHADRADLDRALEAASKGFETWRNMSAFERSKIMRRAADLLRERAEEVARLMTMEQGKPLAEAKMETLGAADTIDWFAEEARRTYGRLVPARVPGAYQMVIKEPVGPVAALTPWNFPLNQVARKLSAALAAGCSIIVKAPEETPASPAELIRAYADAGVPAGVINLVYGVPAEISEYLIPHPVIRKISFTGSTPVGKQLAALAGQHMKRATMELGGHAPAMVFDDADVDVAAKMLATAKFRNAGQVCISPTRFLVQKGVFNAFVDKFVTYAEQLKVGNGLEAGITMGPVANKRRIPALEALIDDAVSQGAQLRTGGKRIGNKGYFFQPTVLTNLPLQARAMNEEPFGPLALINSFETLDEVITEANRLPYGLAAYAFAKSAHTKHALAARVESGMLTINHLGLALPELPFGGIKDSGYGSEGGTEAIEAYINTKLVTQLDV", "values": [{"measurement": "Km", "setting": "[1]; [8]", "value": "3.3 ± 0.4", "unit": "mM"}, {"measurement": "kcat", "setting": "[1]; [8]", "value": "46.9 ± 1.3", "unit": "s⁻¹"}, {"measurement": "Km", "setting": "[2]; [9]", "value": "0.42 ± 0.02", "unit": "mM"}, {"measurement": "kcat", "setting": "[2]; [9]", "value": "46.9 ± 1.3", "unit": "s⁻¹"}]}
{"protein": "HsALDH (HsALDH_Chis; NAD+-dependent aldehyde dehydrogenase / glyceraldehyde dehydrogenase GADH) (Herbaspirillum seropedicae SmR1; … (protein, recombinant, E. coli BL21(DE3); wild type with C-terminal His tag (Chis); models show dimerizing chains) MYKDVQLFINGEWTASASGRTIDVINPATEEVIGKVAHADRADLDRALEAASKGFETWRNMSAFERSKIMRRAADLLRERAEEVARLMTMEQGKPLAEAKMETLGAADTIDWFAEEARRTYGRLVPARVPGAYQMVIKEPVGPVAALTPWNFPLNQVARKLSAALAAGCSIIVKAPEETPASPAELIRAYADAGVPAGVINLVYGVPAEISEYLIPHPVIRKISFTGSTPVGKQLAALAGQHMKRATMELGGHAPAMVFDDADVDVAAKMLATAKFRNAGQVCISPTRFLVQKGVFNAFVDKFVTYAEQLKVGNGLEAGITMGPVANKRRIPALEALIDDAVSQGAQLRTGGKRIGNKGYFFQPTVLTNLPLQARAMNEEPFGPLALINSFETLDEVITEANRLPYGLAAYAFAKSAHTKHALAARVESGMMTINHLGLALPELPFGGIKDSGYGSEGGTEAIEAYINTKLVTQLDV", "values": [{"measurement": "Km", "setting": "[1]; [10]", "value": "3.5 ± 0.5", "unit": "mM"}, {"measurement": "kcat", "setting": "[1]; [10]", "value": "54.8 ± 1.9", "unit": "s⁻¹"}, {"measurement": "Km", "setting": "[2]; FIN5, GS-linker Nhis tag, pH 7.5, 50 °C", "value": 0.34, "unit": "mM"}]}
